Measured values published in PMC12368060 (Communications Biology, 2025).
Square brackets hold non-standard residues; d marks the D form. Ends that are not written are not given here. * marks the point of attachment. FITC = O=C1OC2(c3ccc(O)cc3Oc3cc(O)ccc32)c2ccc(NC(=S)*)cc21; pS = N[C@@H](COP(=O)(O)O)C(=O)O; Ahx = NCCCCCC(=O)O

Columns and labels:
GST-fused LC3B [1] = target: T1, GST-fused LC3B (UniProt Q9GZQ8 1-120); test: SPR
GST-fused LC3B [2] = target: T1, GST-fused LC3B; test: microfluidic diffusional sizing

Binder	Kd (GST-fused LC3B [1])	koff (GST-fused LC3B [1])	kon (GST-fused LC3B [1])	Kd (GST-fused LC3B [2])	stoichiometry N (GST-fused LC3B [2])	fold increase in binding affinity against pS177 alone (GST-fused LC3B [2])	fold increase in Kd against pS177 alone (GST-fused LC3B [2])
{FITC-Ahx}-NSSGSSED[pS]FVEIRMAE [FITC-Ahx OPTN LIR peptide 169-185 (pS177)]	21.2 µM	0.377 s⁻¹	17800 M⁻¹ s⁻¹	14.9 µM	1		
{FITC-Ahx}-NSSGSSEDSFVEIRMAE [FITC-Ahx OPTN LIR peptide 169-185 (WT)]	63.5 µM	0.0351 s⁻¹	550 M⁻¹ s⁻¹	67.1 µM	1		
{FITC-Ahx}-NSSGSSED[pS]WVEIRMAE [FITC-Ahx OPTN LIR peptide 169-185 (pS177 F178W)]					1	7 fold	
{FITC-Ahx}-NSSGSSED[pS]AVEIRMAE [FITC-Ahx OPTN LIR peptide 169-185 (pS177 F178A)]	> 100 µM						7 fold
{FITC-Ahx}-NSSGSSEDDFVEIRMAE [FITC-Ahx OPTN LIR peptide 169-185 (S177D)]				36.7 µM	1		
{FITC-Ahx}-NSSGSSEDEFVEIRMAE [FITC-Ahx OPTN LIR peptide 169-185 (S177E)]				40.2 µM	1		
{FITC-Ahx}-NSSGSSEDSWVEIRMAE [FITC-Ahx OPTN LIR peptide 169-185 (F178W)]				19.1 µM	1		
{FITC-Ahx}-NSSGSSED[pS]FVEIRAAE [FITC-Ahx OPTN LIR peptide 169-185 (pS177 M183A)]	36.7 µM				1		
